Laboratory results taken from article PMC4351136.

Legend:
[1] = target: human β2GPI (beta2-glycoprotein I) (human (endogenous in pooled normal human serum)) (UniProt P02749); test: ELISA
[2] = target: mouse β2GPI (beta2-glycoprotein I) (mouse (endogenous in pooled BALB/c mouse serum)) (UniProt Q01339); test: ELISA
[3] = target: domain V of human β2GPI (human) (UniProt P02749); test: ITC
domain V of human β2GPI (human), sequence (P02749 263-345): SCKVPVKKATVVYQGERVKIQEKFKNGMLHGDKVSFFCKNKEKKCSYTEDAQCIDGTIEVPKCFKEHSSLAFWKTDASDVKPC

human β2GPI (beta2-glycoprotein I) (human (endogenous in pooled normal human serum)), sequence (P02749 20-345): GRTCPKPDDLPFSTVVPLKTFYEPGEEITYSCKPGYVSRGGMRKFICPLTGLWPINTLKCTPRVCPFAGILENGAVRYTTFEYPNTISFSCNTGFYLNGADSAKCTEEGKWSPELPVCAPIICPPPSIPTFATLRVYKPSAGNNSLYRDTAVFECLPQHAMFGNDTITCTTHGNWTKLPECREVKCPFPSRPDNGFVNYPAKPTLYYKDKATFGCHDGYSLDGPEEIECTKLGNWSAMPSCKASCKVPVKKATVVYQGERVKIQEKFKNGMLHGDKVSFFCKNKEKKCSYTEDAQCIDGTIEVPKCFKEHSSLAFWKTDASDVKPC
mouse β2GPI (beta2-glycoprotein I) (mouse (endogenous in pooled BALB/c mouse serum)), sequence (Q01339 20-345): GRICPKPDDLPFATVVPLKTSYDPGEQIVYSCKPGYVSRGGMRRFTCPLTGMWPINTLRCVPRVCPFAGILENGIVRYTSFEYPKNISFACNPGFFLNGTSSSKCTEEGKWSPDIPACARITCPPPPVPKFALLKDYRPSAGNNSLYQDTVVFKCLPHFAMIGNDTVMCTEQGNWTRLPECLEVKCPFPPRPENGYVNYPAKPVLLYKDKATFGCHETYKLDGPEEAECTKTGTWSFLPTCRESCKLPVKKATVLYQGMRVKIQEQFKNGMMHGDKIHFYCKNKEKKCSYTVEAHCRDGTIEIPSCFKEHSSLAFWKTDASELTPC

Substance	IC50 [1] [µM]	IC50 [2] [µM]	Kd [3] [µM]	dH [3] [kcal/mol]	stoichiometry N [3]
Asn36/Asp mutant of mouse A1-A1 (from UniProt Q924X6 40-75; Q924X6 40-75)	2.5	2.8			
human A1, first ligand-binding module of ApoE receptor 2 (ApoER2) (domain or fragment)			20	-6.3	1.06
human A1-A1	5	3.1			
mouse A1, first ligand-binding module of ApoE receptor 2 (ApoER2) (domain or fragment)			26	-5.5	1.06
mouse A1-A1	2.7	3			
